Test results as given in patent US20160046707A1 (EISAI R AND D MANAGEMENT, published 2016).

Experiments:
[1] = target: T1, recombinant human CXCL4 (human, UniProt P02776 32-101); test: ELISA, plate-bound chemokine (1 ug/ml), antibody 10 ug/ml, OD450
T1 construct: also called PF4
T1 sequence (looked up): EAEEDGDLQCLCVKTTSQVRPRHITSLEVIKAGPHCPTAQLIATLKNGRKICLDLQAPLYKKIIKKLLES
Outline: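 Wells coated overnight at 4 °C with 1 μg/ml recombinant human chemokine in PBS, blocked 1 h, then incubated 1 h at room temperature with antibodies at 10 μg/ml in 0.02% Tween 20/PBS. TMB development 15–30 min, stopped with 2 M H2SO4, OD read at 450 nm.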

[2] = target: T1, recombinant human CXCL4; test: SPR (Biacore): antibody captured on the sensor chip, free chemokine injected; concentration not shown
[3] = target: T2, human CCL20-secreted alkaline phosphatase (SEAP) fusion (human, UniProt P78556 27-96); test: ELISA, serially diluted CCL20-SEAP captured by anti-alkaline phosphatase antibody, antibody at 1 µg/ml; human CCL20-SEAP
T2 construct: also called hCCL20; human CCL20-SEAP; not shown: secreted alkaline phosphatase (SEAP), cDNA from pSEAP-Enhancer vector (Clontech)
T2 sequence (P78556 27-96): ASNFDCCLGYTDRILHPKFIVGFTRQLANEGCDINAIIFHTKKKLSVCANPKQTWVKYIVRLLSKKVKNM
Procedure: (§1) To test whether the chimeric and humanized antibodies can bind to mouse, cynomolgus, or rhesus macaque CCL20 orthologs, we used ELISA assays as illustrated in FIG. 15. Recombinant secreted alkaline phosphatase (SEAP)-chemokine fusion proteins were engineered as described in Example 2, expressed and purified for all of the CCL20 orthologs tested. Nunc MaxiSorb flat-bottom black plates were coated with 1 μg/ml mouse anti-placental alkaline phosphatase antibody (Pierce, cat# MA1-19354) in 50 mM sodium bicarbonate, pH 9.4, overnight at 4° C. Plates were then blocked using 1× phosphate buffered saline with Tween-20 (PBST) with 5% bovine serum albumin (BSA) for 2 hours at room temperature. 20 nM SEAP-CCL20 fusion proteins were serially diluted 5-fold in Opti-MEM medium (Invitrogen). Chimeric and humanized (HC2/LC3 and HC2/LK3) antibodies were diluted to 1 μg/ml in 1×PBST with 5% BSA, added to the plates, and incubated for 1 hr at room temperature. The plates were then washed with 1×PBST with 5% BSA three times. […] QuantaBlu fluorescent HRP substrate (Pierce cat#15169) was added for detection of bound antibody by measuring fluorescence in a Molecular Devices M5 (Excitation 325 nm/Emission 420 nm) plate reader. […]

[4] = target: T3, rhesus CCL20-secreted alkaline phosphatase (SEAP) fusion (rhesus monkey); test: ELISA, serially diluted CCL20-SEAP captured by anti-alkaline phosphatase antibody, antibody at 1 µg/ml; rhesus CCL20-SEAP
T3 construct: also called rCCL20; rhesus CCL20-SEAP; not shown: the SEAP reporter (cDNA from Clontech pSEAP-Enhancer) and its junction to CCL20
T3 chain: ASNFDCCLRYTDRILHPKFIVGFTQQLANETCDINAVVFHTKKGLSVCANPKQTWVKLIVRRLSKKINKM
Procedure: as §1

B1: mouse anti-human CCL20 monoclonal antibody 36F7C10 (antibody, V domains shown)
VH: QVQLQQPGAELVKPGASVKMSCKASGYTFTNYWMHWVKQRPGQGLEWIGVIDPSDSYTTYNQKFKGKATLTVDTSSSTAYMQLSSLTSEDSAVYYCTRGNYGVDYAMDYWGQGTSVTVSS
VL: DIQMTQSPASLSASVGETVTITCGASENIYGALNWYQRKQGKSPQLLIYGATNLADGMSSRFSGSGSGRQYSLKISSLHPDDVATYYCQNVLITPYTFGGGTKLEIK
notes: Mouse hybridoma antibody; also called MouseMAb; parental mouse clone 36F7C10
- binding result [1]: no binding (tested: 10 ug/ml)

B2: chimeric 36F7C10 antibody (36F7C10-hFc) (antibody, V domains shown)
VH: QVQLQQPGAELVKPGASVKMSCKASGYTFTNYWMHWVKQRPGQGLEWIGVIDPSDSYTTYNQKFKGKATLTVDTSSSTAYMQLSSLTSEDSAVYYCTRGNYGVDYAMDYWGQGTSVTVSS
VL: DIQMTQSPASLSASVGETVTITCGASENIYGALNWYQRKQGKSPQLLIYGATNLADGMSSRFSGSGSGRQYSLKISSLHPDDVATYYCQNVLITPYTFGGGTKLEIK
notes: also called chimeric 36F710; Chimeric MAb
- binding result [2]: no binding

B3: humanized anti-human CCL20 antibody 36LC3/36HC2 (antibody, human IgG1, kappa, V domains shown)
VH: QVQLVQSGAEVKKPGASVKVSCKASGYTFTNYWMHWVRQAPGQGLEWMGVIDPSDSYTTYAQKFQGRVTMTVDTSTSTVYMELSSLRSEDTAVYYCARGNYGVDYAMDYWGQGTLVTVSS
VL: DIQMTQSPSSLSASVGDRVTITCRASENIYGALNWYQQKPGKAPKLLIYGATNLADGVPSRFSGSGSGRQYSLTISSLQPEDFATYYCQNVLITPYTFGGGTKLEIKR
notes: expressed in HEK293 cells; also called HC2/LC3; HC2LC3
- EC50 [3]: 0.062 nM
- EC50 [4]: 0.101 nM
